The supplement of paper PMC9732359
± gives the uncertainty stated by the source.

Experiment: protein stability index of a GFP-peptide fusion (yeast GPS) (PSI 1-4); higher = more stable; sorted into four equal gates, so the index is relative within each strain
How it was run: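 The protein stability index combines read frequencies across sorting gates, each weighted by its gate number and then summed. To obtain those frequencies, a pooled yeast library of GFP fusions to tiled 17-residue yeast protein peptides, on a plasmid also expressing Cherry, was grown to mid-log phase in leucine-free medium. The cells were sorted into four equal gates by GFP/Cherry ratio before plasmid amplification by PCR and Illumina sequencing.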

Sequence	protein stability index (doa10∆)	protein stability index (pdr5∆)	protein stability index (san1∆)	protein stability index (ubr1∆)
FSSPAALMKTLIKFVDL [NUT1]	1.98 ± 0.083	1.68 ± 0.057	1.95 ± 0.12	1.78 ± 0.12
RKFERARGRRRSKGFKV [RPL18A]	3.28 ± 0.1	3.24 ± 0.094	3.54 ± 0.12	3.15 ± 0.059
ERSICALGEFADWDPES [YML031W/NDC1]	3.5 ± 0.14	3.53 ± 0.092	3.28 ± 0.088	3.27 ± 0.064
KHFIQGGSFGNREEFIN [RPL7A]	1.61 ± 0.21	1.86 ± 0.14	1.21 ± 0.23	1.56 ± 0.04
TLQDIGFYQIKKIVDSK [YMR129W/POM152]	2.64 ± 0.095	2.68 ± 0.1	2.89 ± 0.17	2.97 ± 0.12
KSPSLTAQKYPIYTGDG [YMR153W/NUP53]	2.33 ± 0.055	2.19 ± 0.051	2.08 ± 0.069	2.01 ± 0.036
KEAALKTMIKTIEKDKM [SMC2]	2.8 ± 0.17	1.83 ± 0.14	1.57 ± 0.13	2.03 ± 0.061
SLELQSFQKIPLSRINE [YML103C/NUP188]	2.67 ± 0.12	2.82 ± 0.11	2.94 ± 0.07	2.88 ± 0.12
FITNVQSISQNSSSSTP [SWI1]	2.38 ± 0.069	2.63 ± 0.063	2.43 ± 0.064	2.44 ± 0.05
AVIESVVNQPTGKIVDV [FAS1]	2.49 ± 0.097	2.57 ± 0.14	2.52 ± 0.089	2.39 ± 0.08
VQVKVLGKYEFSKILPA [ESC2]	2.03 ± 0.15	1.99 ± 0.14	–	1.83 ± 0.19
DSALRYSILGDRFKYRS [POP4]	3.27 ± 0.18	3.04 ± 0.23	3.23 ± 0.098	–
IILPLDNATLTELVDKA [SSN2]	2.54 ± 0.11	3.16 ± 0.15	2.6 ± 0.099	1.95 ± 0.26
IRSSSVSLVAEATSNTN [MED4]	1.89 ± 0.076	1.63 ± 0.061	2.12 ± 0.098	1.33 ± 0.036
SKHNERNKSAANNDINS [YDL088C/ASM4]	–	3.21 ± 0.12	–	2.85 ± 0.12
KGLETIDNGAESSENEA [RPC53]	3.24 ± 0.13	3.44 ± 0.13	3.14 ± 0.1	3.12 ± 0.094
QGNYVTEDIREGDQAEV [YMR129W/POM152]	3.49 ± 0.086	3.32 ± 0.073	3.3 ± 0.066	3.39 ± 0.083
NDLHHSEKKYAEEDQVQ [RPN3]	2.85 ± 0.1	3.3 ± 0.16	2.99 ± 0.13	2.98 ± 0.21
LDGVSYLHQNWVLHRDL [SSN3]	2.34 ± 0.11	2.11 ± 0.081	2.77 ± 0.19	2.24 ± 0.087
FLYEILSSLKSFAIYSS [SRB8]	1.24 ± 0.053	1.16 ± 0.038	1.34 ± 0.099	1.14 ± 0.047
PVEKVKEHDEIEEQGDA [DPB4]	3.19 ± 0.095	3.34 ± 0.12	–	3.5 ± 0.11
NSTLKKVESQETLNDTI [YCS4]	2.12 ± 0.1	2.43 ± 0.092	2.37 ± 0.13	2.1 ± 0.11
IDDVQTIKVVKRSMDAE [RPP1]	3.18 ± 0.054	2.89 ± 0.057	3.06 ± 0.039	3 ± 0.051
SEPIKEIIDNWEKYEQS [FAS1]	2.88 ± 0.097	3.22 ± 0.07	3.23 ± 0.048	2.96 ± 0.059
IFRGSLIGCIPYSKNAV [YDL088C/ASM4]	2.18 ± 0.062	2.51 ± 0.09	2.14 ± 0.13	2.19 ± 0.068
MSLRHFGHLMHYGNEHI [RPN1]	1.47 ± 0.04	1.38 ± 0.039	1.4 ± 0.066	1.33 ± 0.032
QDEEQTEHLTELSDNEE [YCG1]	3.29 ± 0.09	3.37 ± 0.075	3.33 ± 0.054	3.02 ± 0.062

Sequence	protein stability index (doa10∆)	protein stability index (pdr5∆)	protein stability index (san1∆)	protein stability index (ubr1∆)
TTVSNDLENSPLKTELE [SSN2]	3.05 ± 0.13	3.16 ± 0.096	3.16 ± 0.072	3.19 ± 0.082
KAKRQINSGTNSANGSS [SSN3]	2.52 ± 0.057	2.68 ± 0.058	2.92 ± 0.057	2.91 ± 0.046
ALDGDLIELLEKLDVSR [YCG1]	3.27 ± 0.25	3.42 ± 0.2	3.16 ± 0.13	2.73 ± 0.2
TALEHKVVNGNSADAAY [FAS2]	2.84 ± 0.08	3.09 ± 0.088	3.05 ± 0.063	3.13 ± 0.06
GFNMKKITTSTEDQKVT [SRP68]	2.84 ± 0.065	2.67 ± 0.051	2.83 ± 0.074	2.42 ± 0.04
GSKISSNDLDKFFQKKI [YGL172W/NUP49]	1.72 ± 0.069	2.02 ± 0.076	1.7 ± 0.074	2.27 ± 0.057
AKAVWENIIIVGGTTSI [ARP9]	1.89 ± 0.044	2.12 ± 0.057	1.67 ± 0.081	2.48 ± 0.054
NGEIKGENIDADNDGPR [SNF2]	3.07 ± 0.074	3.48 ± 0.069	3.49 ± 0.063	3.08 ± 0.073
PNSNKTHTEQNNPPKPQ [SNF2]	2.78 ± 0.056	3.07 ± 0.083	3.06 ± 0.069	3.06 ± 0.052
KLGIESKQPNSAIRKCV [RPS23A]	3.21 ± 0.11	3.25 ± 0.12	3.02 ± 0.12	3.41 ± 0.054
LDSGDDQPQSSEAKRTK [BRR2]	3.31 ± 0.057	3.26 ± 0.057	3.25 ± 0.048	3.25 ± 0.043
ELRYQSHILNSHSLALN [DSN1]	2.29 ± 0.066	2.66 ± 0.058	2.63 ± 0.057	2.66 ± 0.049
ILEDTATMSVFLQRIDF [RRI2]	2.78 ± 0.059	2.53 ± 0.05	2.76 ± 0.056	2.59 ± 0.042
GASTGNANTGFSFGGTQ [YGL172W/NUP49]	2.06 ± 0.067	2.12 ± 0.054	1.58 ± 0.097	2.33 ± 0.063
IWRKVPGDVLDKDAFIP [SNU114]	3.6 ± 0.28	–	–	–
APMDFAIVVGWRAIIKA [FAS1]	2.51 ± 0.086	2.66 ± 0.08	2.57 ± 0.082	2.14 ± 0.062
SKKNRPTLQVGDLVYAR [RRP40]	2.36 ± 0.1	2.48 ± 0.09	1.87 ± 0.12	2.46 ± 0.043
MTDMQIQWYKSLLEKDI [ISW2]	1.84 ± 0.058	2.35 ± 0.062	1.74 ± 0.092	2.78 ± 0.061
RCNDNLMRSCFYLMVSS [YJL039C/NUP192]	1.46 ± 0.043	1.72 ± 0.054	2.31 ± 0.057	1.1 ± 0.038
RPGRIDRKIEFPPPSVA [RPT6]	3.21 ± 0.072	3.26 ± 0.07	3.05 ± 0.054	3.25 ± 0.048
TAEERVGRRAANLRVLN [RPL15A]	2.83 ± 0.12	3.28 ± 0.14	2.75 ± 0.14	2.92 ± 0.11
LKFMAASEVATHSKLFA [PRP8]	2.91 ± 0.085	3.07 ± 0.082	2.78 ± 0.062	2.7 ± 0.073
RSDREYPLLIRMSYGSH [SRP14]	2.51 ± 0.077	2.3 ± 0.077	1.92 ± 0.077	2.23 ± 0.061
EEIEPKLEKLRNEKRMF [SMC2]	2.89 ± 0.11	3.21 ± 0.074	3.02 ± 0.1	3.21 ± 0.079
KNLIQLISLKLLTFEVT [SRB8]	1.28 ± 0.081	1.19 ± 0.054	1.24 ± 0.13	1.1 ± 0.071
DENTSGKISKPRFLNKQ [PRP28]	–	3.4 ± 0.23	–	3.16 ± 0.15
SLQDRSSLVRRNSVKLL [YCS4]	2.02 ± 0.055	2.12 ± 0.049	1.94 ± 0.062	1.56 ± 0.027
